Results reported in publication PMC9105384, “Ethyl Gallate Dual-Targeting PTPN6 and PPARγ Shows Anti-Diabetic and Anti-Obese Effects” (International Journal of Molecular Sciences, 2022).

Substrate: Cc1cc(=O)oc2c(F)c(OP(=O)(O)O)c(F)cc12
Assay: purified protein, by the assay type
Parameters: DiFMUP hydrolysis by purified PTPs, fluorescence Ex355/Em460, initial rates over 10 min; Michaelis-Menten and Lineweaver-Burk Km
Protocol: The enzymatic activity of each PTP was evaluated using 6,8-difluoro-4-methylumbelliferyl phosphate (DiFMUP) as the surrogate substrate. To reach within the range of the initial rate (v0) during the measurement for 10 min, the pH and concentration of each PTP were optimized and are listed in Table S3. To determine the Km values, each PTP with optimized concentration was added to the reaction buffer (20 mM Bis-Tris at pH 6.0 or Tris at pH 7.0 and 8.0, 150 mM NaCl, 2.5 mM dithiothreitol (DTT), 0.01% Triton X-100) containing various concentrations of DiFMUP to obtain a final volume of 100 μL in a 96-well plate. Fluorescence intensities were measured once every minute for a complete 10 min duration using a Victor™ X4 Multilabel Plate Reader (Perkin Elmer, Waltham, MA, USA) at excitation/emission = 355 nm/460 nm. The initial rates of the reaction were determined using a previously described procedure for calculating the amount of product formation. To screen a library of 1033 natural products (Chengdu Biopurify Phytochemicals Ltd., Chengdu, China) against 20 PTPs, each PTP with an optimized concentration was added to the reaction buffer with an optimized pH containing DiFMUP (2 × Km for each PTP) after adding each compound (20 μM). […] The IC50 values were estimated using a sigmoid plot in GraphPad Prism 5 software (GraphPad Software Inc., San Diego, CA, USA). The Hill coefficient (nH), the degree of cooperativity, was calculated according to a previously published method. To determine the inhibition constant (Ki) and identify the inhibition mode of EG, various concentrations of EG (2.5, 5, 10, and 20 μM) were assayed with various concentrations of DiFMUP (260, 130, 65, and 32.5 μM). Kinetic parameters were obtained using Dixon plots for Ki and Lineweaver-Burk plots for the inhibition mode.

B1: SSH2 (Homo sapiens) (protein)
chain: MALVTVQRSPTPSTTSSPCASEADSGEEECRSQPRSISESFLTVKGAALFLPRGNGSSTPRISHRRNKHAGDLQQHLQAMFILLRPEDNIRLAVRLESTYQNRTRYMVVVSTNGRQDTEESIVLGMDFSSNDSSTCTMGLVLPLWSDTLIHLDGDGGFSVSTDNRVHIFKPVSVQAMWSALQSLHKACEVARAHNYYPGSLFLTWVSYYESHINSDQSSVNEWNAMQDVQSHRPDSPALFTDIPTERERTERLIKTKLREIMMQKDLENITSKEIRTELEMQMVCNLREFKEFIDNEMIVILGQMDSPTQIFEHVFLGSEWNASNLEDLQNRGVRYILNVTREIDNFFPGVFEYHNIRVYDEEATDLLAYWNDTYKFISKAKKHGSKCLVHCKMGVSRSASTVIAYAMKEYGWNLDRAYDYVKERRTVTKPNPSFMRQLEEYQGILLASKQRHNKLWRSHSDSDLSDHHEPICKPGLELNKKDITTSADQIAEVKTMESHPPIPPVFVEHMVPQDANQKGLCTKERMICLEFTSREFHAGQIEDELNLNDINGCSSGCCLNESKFPLDNCHASKALIQPGHVPEMANKFPDLTVEDLETDALKADMNVHLLPMEELTSPLKDPPMSPDPESPSPQPSCQTEISDFSTDRIDFFSALEKFVELSQETRSRSFSHSRMEELGGGRNESCRLSVVEVAPSKVTADDQRSSSLSNTPHASEESSMDEEQSKAISELVSPDIFMQSHSENAISVKEIVTEIESISQGVGQIQLKGDILPNPCHTPKKNSIHELLLERAQTPENKPGHMEQDEDSCTAQPELAKDSGMCNPEGCLTTHSSIADLEEGEPAEGEQELQGSGMHPGAKWYPGSVRRATLEFEERLRQEQEHHGAAPTCTSLSTRKNSKNDSSVADLAPKGKSDEAPPEHSFVLKEPEMSKGKGKYSGSEAGSLSHSEQNATVPAPRVLEFDHLPDPQEGPGSDTGTQQEGVLKDLRTVIPYQESETQAVPLPLPKRVEIIEYTHIVTSPNHTGPGSEIATSEKSGEQGLRKVNMEKSVTVLCTLDENLNRTLDPNQVSLHPQVLPLPHSSSPEHNRPTDHPTSILSSPEDRGSSLSTALETAAPFVSHTTHLLSASLDYLHPQTMVHLEGFTEQSSTTDEPSAEQVSWEESQESPLSSGSEVPYKDSQLSSADLSLISKLGDNTGELQEKMDPLPVACRLPHSSSSENIKSLSHSPGVVKERAKEIESRVVFQAGLTKPSQMRRSASLAKLGYLDLCKDCLPEREPASCESPHLKLLQPFLRTDSGMHAMEDQESLENPGAPHNPEPTKSFVEQLTTTECIVQSKPVERPLVQYAKEFGSSQQYLLPRAGLELTSSEGGLPVLQTQGLQCACPAPGLAVAPRQQHGRTHPLRRLKKANDKKRTTNPFYNTM
Km: 215.3 µM

B2: PTPN7 (Homo sapiens) (protein)
chain: MVQAHGGRSRAQPLTLSLGAAMTQPPPEKTPAKKHVRLQERRGSNVALMLDVRSLGAVEPICSVNTPREVTLHFLRTAGHPLTRWALQRQPPSPKQLEEEFLKIPSNFVSPEDLDIPGHASKDRYKTILPNPQSRVCLGRAQSQEDGDYINANYIRGYDGKEKVYIATQGPMPNTVSDFWEMVWQEEVSLIVMLTQLREGKEKCVHYWPTEEETYGPFQIRIQDMKECPEYTVRQLTIQYQEERRSVKHILFSAWPDHQTPESAGPLLRLVAEVEESPETAAHPGPIVVHCSAGIGRTGCFIATRIGCQQLKARGEVDILGIVCQLRLDRGGMIQTAEQYQFLHHTLALYAGQLPEEPSP
Km: 25.5 µM

B3: PTPN9 (Homo sapiens) (protein)
chain: MEPATAPRPDMAPELTPEEEQATKQFLEEINKWTVQYNVSPLSWNVAVKFLMARKFDVLRAIELFHSYRETRRKEGIVKLKPHEEPLRSEILSGKFTILNVRDPTGASIALFTARLHHPHKSVQHVVLQALFYLLDRAVDSFETQRNGLVFIYDMCGSNYANFELDLGKKVLNLLKGAFPARLKKVLIVGAPIWFRVPYSIISLLLKDKVRERIQILKTSEVTQHLPRECLPENLGGYVKIDLATWNFQFLPQVNGHPDPFDEIILFSLPPALDWDSVHVPGPHAMTIQELVDYVNARQKQGIYEEYEDIRRENPVGTFHCSMSPGNLEKNRYGDVPCLDQTRVKLTKRSGHTQTDYINASFMDGYKQKNAYIGTQGPLENTYRDFWLMVWEQKVLVIVMTTRFEEGGRRKCGQYWPLEKDSRIRFGFLTVTNLGVENMNHYKKTTLEIHNTEERQKRQVTHFQFLSWPDYGVPSSAASLIDFLRVVRNQQSLAVSNMGARSKGQCPEPPIVVHCSAGIGRTGTFCSLDICLAQLEELGTLNVFQTVSRMRTQRAFSIQTPEQYYFCYKAILEFAEKEGMVSSGQNLLAVESQ
Km: 110 µM

B4: PTPN3 (Homo sapiens) (protein)
chain: MTSRLRALGGRINNIRTSELPKEKTRSEVICSIHFLDGVVQTFKVTKQDTGQVLLDMVHNHLGVTEKEYFGLQHDDDSVDSPRWLEASKAIRKQLKGGFPCTLHFRVRFFIPDPNTLQQEQTRHLYFLQLKMDICEGRLTCPLNSAVVLASYAVQSHFGDYNSSIHHPGYLSDSHFIPDQNEDFLTKVESLHEQHSGLKQSEAESCYINIARTLDFYGVELHSGRDLHNLDLMIGIASAGVAVYRKYICTSFYPWVNILKISFKRKKFFIHQRQKQAESREHIVAFNMLNYRSCKNLWKSCVEHHTFFQAKKLLPQEKNVLSQYWTMGSRNTKKSVNNQYCKKVIGGMVWNPAMRRSLSVEHLETKSLPSRSPPITPNWRSPRLRHEIRKPRHSSADNLANEMTYITETEDVFYTYKGSLAPQDSDSEVSQNRSPHQESLSENNPAQSYLTQKSSSSVSPSSNAPGSCSPDGVDQQLLDDFHRVTKGGSTEDASQYYCDKNDNGDSYLVLIRITPDEDGKFGFNLKGGVDQKMPLVVSRINPESPADTCIPKLNEGDQIVLINGRDISEHTHDQVVMFIKASRESHSRELALVIRRRAVRSFADFKSEDELNQLFPEAIFPMCPEGGDTLEGSMAQLKKGLESGTVLIQFEQLYRKKPGLAITFAKLPQNLDKNRYKDVLPYDTTRVLLQGNEDYINASYVNMEIPAANLVNKYIATQGPLPHTCAQFWQVVWDQKLSLIVMLTTLTERGRTKCHQYWPDPPDVMNHGGFHIQCQSEDCTIAYVSREMLVTNTQTGEEHTVTHLQYVAWPDHGVPDDSSDFLEFVNYVRSLRVDSEPVLVHCSAGIGRTGVLVTMETAMCLTERNLPIYPLDIVRKMRDQRAMMVQTSSQYKFVCEAILRVYEEGLVQMLDPS
Km: 2.0 µM

B5: PTPN2 (Homo sapiens) (protein)
chain: MPTTIEREFEELDTQRRWQPLYLEIRNESHDYPHRVAKFPENRNRNRYRDVSPYDHSRVKLQNAENDYINASLVDIEEAQRSYILTQGPLPNTCCHFWLMVWQQKTKAVVMLNRIVEKESVKCAQYWPTDDQEMLFKETGFSVKLLSEDVKSYYTVHLLQLENINSGETRTISHFHYTTWPDFGVPESPASFLNFLFKVRESGSLNPDHGPAVIHCSAGIGRSGTFSLVDTCLVLMEKGDDINIKQVLLNMRKYRMGLIQTPDQLRFSYMAIIEGAKCIKGDSSIQKRWKELSKEDLSPAFDHSPNKIMTEKYNGNRIGLEEEKLTGDRCTGLSSKMQDTMEENSESALRKRIREDRKATTAQKVQQMKQRLNENERKRKRWLYWQPILTKMGFMSVILVGAFVGWTLFFQQNAL
Km: 20.0 µM
